Assay results: paper PMC9396825

T1: Pan1-FKBP (yeast Eps15-like protein Pan1p with a C-terminal FKBP tag) (yeast), P32521
T1 chain: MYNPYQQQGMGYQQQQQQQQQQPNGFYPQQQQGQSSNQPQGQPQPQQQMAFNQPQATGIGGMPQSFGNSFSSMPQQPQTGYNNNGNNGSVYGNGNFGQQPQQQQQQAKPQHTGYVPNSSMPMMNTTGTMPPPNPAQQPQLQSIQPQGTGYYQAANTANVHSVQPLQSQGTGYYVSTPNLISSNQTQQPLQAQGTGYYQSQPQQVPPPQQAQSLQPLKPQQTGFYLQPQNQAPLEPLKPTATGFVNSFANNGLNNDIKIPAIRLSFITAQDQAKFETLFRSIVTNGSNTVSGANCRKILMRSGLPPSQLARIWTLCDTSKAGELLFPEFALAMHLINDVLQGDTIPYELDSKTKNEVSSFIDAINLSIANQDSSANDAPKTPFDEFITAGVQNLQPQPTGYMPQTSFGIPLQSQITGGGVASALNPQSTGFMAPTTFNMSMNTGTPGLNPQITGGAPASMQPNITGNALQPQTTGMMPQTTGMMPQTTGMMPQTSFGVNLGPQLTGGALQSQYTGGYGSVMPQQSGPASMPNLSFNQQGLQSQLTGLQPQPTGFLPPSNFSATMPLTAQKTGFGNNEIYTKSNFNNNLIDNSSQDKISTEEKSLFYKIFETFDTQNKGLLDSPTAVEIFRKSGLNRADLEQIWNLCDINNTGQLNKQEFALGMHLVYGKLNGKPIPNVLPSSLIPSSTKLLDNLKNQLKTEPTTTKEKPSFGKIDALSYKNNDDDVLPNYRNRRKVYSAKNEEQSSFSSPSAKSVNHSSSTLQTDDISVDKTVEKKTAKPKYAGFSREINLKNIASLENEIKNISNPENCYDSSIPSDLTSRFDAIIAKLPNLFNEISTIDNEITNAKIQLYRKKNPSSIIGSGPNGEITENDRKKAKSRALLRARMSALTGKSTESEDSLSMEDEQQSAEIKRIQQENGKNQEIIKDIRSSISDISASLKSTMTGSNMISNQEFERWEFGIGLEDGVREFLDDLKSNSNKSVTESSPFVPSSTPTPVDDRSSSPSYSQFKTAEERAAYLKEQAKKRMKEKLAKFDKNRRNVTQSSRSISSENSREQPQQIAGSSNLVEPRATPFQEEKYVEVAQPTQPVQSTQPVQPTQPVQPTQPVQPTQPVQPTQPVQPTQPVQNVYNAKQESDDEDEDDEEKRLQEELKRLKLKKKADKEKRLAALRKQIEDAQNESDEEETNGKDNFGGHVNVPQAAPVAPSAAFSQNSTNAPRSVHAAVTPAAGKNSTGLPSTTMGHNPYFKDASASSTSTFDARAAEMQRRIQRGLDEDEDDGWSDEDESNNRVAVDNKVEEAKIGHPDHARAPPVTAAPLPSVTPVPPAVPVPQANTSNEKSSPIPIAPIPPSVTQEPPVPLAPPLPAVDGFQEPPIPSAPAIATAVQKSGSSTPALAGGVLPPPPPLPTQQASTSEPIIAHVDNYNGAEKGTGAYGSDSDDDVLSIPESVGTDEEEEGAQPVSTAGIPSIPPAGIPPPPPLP


What was measured:
[1] = molecular target: Pan1-FKBP (yeast Eps15-like protein Pan1p with a C-terminal FKBP tag) (yeast) (UniProt P32521); experiment: inducible peroxisome redistribution assay
[2] = molecular target: T1, Pan1-FKBP (yeast Eps15-like protein …); experiment: inducible peroxisome redistribution assay; details: remark: other sources report otherwise

Molecule | percent localized to the peroxisome [1] [%] | percent localized to the peroxisome [2] [%]
Ent1-GFP (from UniProt Q12518 1-454) (natural protein) | 64 | 
Sla1-GFP, P32790 1-1244 (natural protein) MTVFLGIYRAVYAYEPQTPEELAIQEDDLLYLLQKSDIDDWWTVKKRVIGSDSEEPVGLVPSTYIEEAPVLKKVRAIYDYEQVQNADEELTFHENDVFDVFDDKDADWLLVKSTVSNEFGFIPGNYVEPENGSTSKQEQAPAAAEAPAATPAAAPASAAVLPTNFLPPPQHNDRARMMQSKEDQAPDEDEEGPPPAMPARPTATTETTDATAAAVRSRTRLSYSDNDNDDEEDDYYYNSNSNNVGNHEYNTEYHSWNVTEIEGRKKKKAKLSIGNNKINFIPQKGTPHEWSIDKLVSYDNEKKHMFLEFVDPYRSLELHTGNTTTCEEIMNIIGEYKGASRDPGLREVEMASKSKKRGIVQYDFMAESQDELTIKSGDKVYILDDKKSKDWWMCQLVDSGKSGLVPAQFIEPVRDKKHTESTASGIIKSIKKNFTKSPSRSRSRSRSKSNANASWKDDELQNDVVGSAAGKRSRKSSLSSHKKNSSATKDFPNPKKSRLWVDRSGTFKVDAEFIGCAKGKIHLHKANGVKIAVAADKLSNEDLAYVEKITGFSLEKFKANDGSSSRGTDSRDSERERRRRLKEQEEKERDRRLKERELYELKKARELLDEERSRLQEKELPPIKPPRPTSTTSVPNTTSVPPAESSNNNNSSNKYDWFEFFLNCGVDVSNCQRYTINFDREQLTEDMMPDINNSMLRTLGLREGDIVRVMKHLDKKFGRENIASIPTNATGNMFSQPDGSLNVATSPETSLPQQLLPQTTSPAQTAPSTSAETDDAWTVKPASKSESNLLSKKSEFTGSMQDLLDLQPLEPKKAAASTPEPNLKDLEPVKTGGTTVPAAPVSSAPVSSAPAPLDPFKTGGNNILPLSTGFVMMPMITGGDMLPMQRTGGFVVPQTTFGMQSQVTGGILPVQKTGNGLIPISNTGGAMMPQTTFGAAATVLPLQKTGGGLIPIATTGGAQFPQTSFNVQGQQQLPTGSILPVQKTANGLISANTGVSMPTVQRTGGTMIPQTSFGVSQQLTGGAMMTQPQNTGSAMMPQTSFNAVPQITGGAMMPQTSFNALPQVTGGAMMPLQRTGGALNTFNTGGAMIPQTSFSSQAQNTGGFRPQSQFGLTLQKTGGIAPLNQNQFTGGAMNTLSTGGVLQQQQPQTMNTFNTGGVMQELQMMTTFNTGGAMQQPQMMNTFNTDGIMQQPQMMNTFNTGGAMQQPQQQALQNQPTGFGFGNGPQQSRQANIFNATASNPFGF |  | 63.3

The remaining lines, values ahead:

percent localized to the peroxisome [1] [%] | percent localized to the peroxisome [2] [%] | Molecule
72 |  | GFP-fused Sla2p (from UniProt P33338 1-968) (natural protein)
66.7 |  | GFP-tagged Ent2p (from UniProt Q05785 1-613) (natural protein)
